Measurements taken from paper PMC7048170.

Target: MUC1 cytoplasmic tail construct (MUC1 with the tandem repeat domain deleted) (human)
Assay: co-IP

Substance “c-Jun (from UniProt P05412 1-331) (natural protein)” has a fold of co-precipitated protein against the input control of 5.6 fold.
In the case of “p53 (from UniProt P04637 1-393) (natural protein)”, the fold of co-precipitated protein against the input control is reported as 6.9 fold.
